Earlier results in publication PMC6651453.
Where two headings read alike, the source gives them in different places. One block for each substance: values may come before it.

Legend:
[1] = target: POT1 330-634 (Homo sapiens) (UniProt Q9NUX5); assay: isothermal titration calorimetry
TIN2 (Homo sapiens) = TIN2 (Homo sapiens) (UniProt Q9BSI4); assay: thermophoresis
[2] = target: TPP1 89-544 (Homo sapiens) (UniProt Q96AP0); assay: fluorescence anisotropy and thermophoresis
[3] = target: TIN2 2-202 (Homo sapiens) (UniProt Q9BSI4); assay: fluorescence polarization
[4] = target: TIN2 2-202 (Homo sapiens) (UniProt Q9BSI4); assay: fluorescence polarization; remark: listed apart in the source
TPP1 TBM1 (Homo sapiens) [5] = target: TPP1 TBM1 (Homo sapiens) (UniProt Q96AP0); assay: fluorescence polarization
TPP1 TBM1 (Homo sapiens) [6] = target: TPP1 TBM1 (Homo sapiens) (UniProt Q96AP0); assay: fluorescence polarization; remark: listed apart in the source

UniProt Q9NUX5, sequence (Q9NUX5 330-634): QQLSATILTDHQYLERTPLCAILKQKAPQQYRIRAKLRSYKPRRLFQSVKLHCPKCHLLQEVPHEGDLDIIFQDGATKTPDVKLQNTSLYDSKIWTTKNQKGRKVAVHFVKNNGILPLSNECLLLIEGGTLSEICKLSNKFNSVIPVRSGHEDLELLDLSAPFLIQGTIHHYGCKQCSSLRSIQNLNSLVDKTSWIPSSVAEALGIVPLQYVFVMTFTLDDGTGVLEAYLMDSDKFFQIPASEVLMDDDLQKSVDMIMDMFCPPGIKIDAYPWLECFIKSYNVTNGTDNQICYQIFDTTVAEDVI

Kd [1]: 0.12 µM
Substance: TPP1 255-337 (from UniProt Q96AP0)

Kd (TIN2 (Homo sapiens)): 0.24 µM
Substance: TRF1 (from UniProt P54274)

Kd [2]: 2.8 µM
Substance: TIN2 (from UniProt Q9BSI4)

The remaining lines, values behind:

Substance: TRF2 TBM2 (from UniProt Q15554)
Kd [3]: 1.1 µM | Kd [4]: 2.7 µM

Substance: TRF2 (from UniProt Q15554)
Kd (TIN2 (Homo sapiens)): 0.36 µM

Substance: TIN2 2-202 (from UniProt Q9BSI4)
Kd (TPP1 TBM1 (Homo sapiens) [5]): 0.14 µM | Kd (TPP1 TBM1 (Homo sapiens) [6]): 0.52 µM
